Experimental data taken from the supplement of paper PMC10567573.

B1: MMP1 (parent)
chain: YTPDLPRADVDHAIEKAFQLWSNV

Variants of: B1
Assay: protein stability index of a GFP-peptide fusion (GPS, HEK-293T) (PSI 1-6); higher = more stable
Conditions: c terminus: a fixed tail appended
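Further: lentivirally expressed fusions sorted by FACS into six bins by GFP to DsRed ratio, PSI derived from sequencing read proportions per bin multiplied by bin number.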

Protein stability index: each site, then its substitutions
L20: W 1.1, Y 1.78, V 2.76, D 2.96, T 2.21, H 2.38, Q 1.59, E 3.55, G 1.9, F 2.67, R 1.99, A 2.17, N 2.19, S 2.29, P 1.88, M 1.77, K 2.9, I 2.16, C 1.84
S22: H 1.43, K 2.03, P 1.85, N 1.85, A 1.78, M 1.69, G 1.81, R 1.72, Q 1.98, T 1.59, V 1.44, F 1.82, D 2.59, L 2.19, C 2.02, E 2.75, I 2.04
A17: V 2.38, I 2.15, F 1.97, C 1.83, Q 1.82, W 1.25, D 1.97, K 1.44, L 1.79, E 1.84, T 2.54, N 1.53, H 2.68, P 1.43, S 2.11, Y 1.68, R 1.63, G 1.93, M 2
D11: Y 1.7, L 1.96, P 3.09, S 1.96, A 2.08, R 2.69, M 2.12, G 3.41, C 2.17, N 1.63, E 1.4, V 1.59, T 2.62, W 1.73, F 2.12, K 2.21, I 1.94, H 2.07, Q 1.83
Q19: W 1.96, R 2.15, C 3.82, T 3.63, L 1.05, E 1.98, M 1.68, Y 1.87, F 2.43, G 1.75, V 2.66, D 2.5, K 1.86, P 1.52, H 1.97, N 2.82, I 2.33, A 1.54, S 1.7
W21: H 3.42, M 3.03, P 3.4, T 3.42, I 2.67, A 3.05, C 3.03, N 3.36, D 3.88, G 3.01, F 2.13, Q 2.88, V 3.18, L 3.56, E 3.74, R 3.25, Y 2.5, S 3.25, K 3.4
V10: H 1.58, A 2.06, F 1.79, Q 1.81, G 1.96, P 1.49, E 1.81, R 2.55, L 1.27, N 1.48, Y 2.71, T 1.91, C 2.1, S 1.88, W 3.04, K 2.44, D 2.16, I 1.76, M 2.56
L5: P 1.81, T 2.02, V 2.89, Q 2.07, M 2.12, I 2.1, R 2.49, K 1.91, Y 1.44, H 2.2, W 2.17, S 2.05, N 1.92
A8: W 1.87, C 2.07, K 2.58, G 2.83, M 1.74, R 1.67, N 1.41, D 1.53, F 2.94, Q 1.57, H 1.75, I 1.88, Y 1.93, P 1.51, E 2.67, T 1.79, L 2.03, S 1.68, V 1.64
E15: K 1.32, T 2.46, M 2.46, C 2.24, Y 2.07, S 2.19, Q 1.46, I 2.53, R 2.73, G 2.54, L 2.65, W 1.83, H 2.09, D 1.58, A 1.46, V 1.39, N 1.97, F 2.56, P 1.93
I14: T 1.39, W 1.46, Y 2.17, G 2.25, V 2.08, E 1.36, F 2.14, H 1.62, Q 2.3, D 1.81, N 1.88, S 1.51, P 2.14, A 1.68, K 2.14, M 1.7, L 1.39, R 2.31, C 2.1
K16: E 1.76, L 1.52, N 1.52, V 2.28, R 1.8, P 1.83, W 3.17, F 1.52, A 2.07, Q 1.76, Y 3.76, C 2.02, D 1.71, T 2.03, M 1.54, I 2.71, H 2.06, S 2, G 1.19
H12: C 1.62, V 1.95, E 2.04, N 1.92, D 2.09, G 2.03, S 1.58, T 1.82, M 1.63, K 1.79, I 2, P 2.11, W 2.21, Y 2, A 2.46, R 1.64, L 2.19, F 1.7, Q 1.69
D9: F 1.57, P 1.54, Y 2.35, R 1.16, G 2.49, W 1.51, H 2.51, M 2.31, Q 2.5, L 1.3, E 1.75, T 1.82, V 2.62, S 2.55, C 1.75, N 1.59, A 1.38, K 2.44, I 1.78
A13: P 1.58, N 2.11, G 3.15, R 2.08, S 1.89, I 2.27, E 2.19, K 2.1, F 1.79, Q 2.03, C 1.93, L 1.63, D 1.71, W 2.06, T 3, Y 1.95, M 2.61, H 2.27, V 2.79
R7: E 1.94, L 1.42, A 2.3, C 2.01, M 2.25, F 2.09, I 1.5, Y 1.08, W 1.79, K 2.12, G 1.91, S 1.75, V 2.12, T 1.88, H 1.89, Q 1.92, N 1.64, D 1.79, P 1.81
P6: N 1.8, S 2.55, D 2.01, T 1.78, F 1.82, M 2.2, V 2.12, G 2.17, R 1.78, L 1.32, Q 2.03, I 2.09, C 2.05, H 1.55, K 2.12, Y 1.47, A 1.56, W 2.06, E 1.83
F18: L 1.46, K 2.22, C 1.69, W 1.48, N 1.94, R 1.66, E 2.29, A 1.83, S 1.67, V 2.04, Y 2.11, M 2.04, G 2.23, I 2.41, H 3.17, Q 1.73, P 1.99, T 2.13, D 2.18
